Reference: paper PMC7769916 (Cellular and molecular life sciences : CMLS, 2020)

Legend:
[1] = molecular target: Plexin-B1 ICD R1900E.R1904E (human) (UniProt O43157)
[2] = molecular target: Plexin-B1 ICD E1530R.E1533R (human) (UniProt O43157)
[3] = molecular target: Plexin-B1 ICD FL [res. 1511-2135] (human, UniProt O43157 1511-2135); assay: MST
[4] = molecular target: Plexin-B1 ICD E1530R.E1533R (human, UniProt O43157 1511-2135, E1530R | E1533R); assay: MST
[5] = molecular target: Plexin-B1 ICD R1900E.R1904E (human, UniProt O43157 1511-2135, R1900E | R1904E); assay: MST
Plexin-B1 ICD R1900E.R1904E, sequence (O43157 1511-2135 R1900E/R1904E): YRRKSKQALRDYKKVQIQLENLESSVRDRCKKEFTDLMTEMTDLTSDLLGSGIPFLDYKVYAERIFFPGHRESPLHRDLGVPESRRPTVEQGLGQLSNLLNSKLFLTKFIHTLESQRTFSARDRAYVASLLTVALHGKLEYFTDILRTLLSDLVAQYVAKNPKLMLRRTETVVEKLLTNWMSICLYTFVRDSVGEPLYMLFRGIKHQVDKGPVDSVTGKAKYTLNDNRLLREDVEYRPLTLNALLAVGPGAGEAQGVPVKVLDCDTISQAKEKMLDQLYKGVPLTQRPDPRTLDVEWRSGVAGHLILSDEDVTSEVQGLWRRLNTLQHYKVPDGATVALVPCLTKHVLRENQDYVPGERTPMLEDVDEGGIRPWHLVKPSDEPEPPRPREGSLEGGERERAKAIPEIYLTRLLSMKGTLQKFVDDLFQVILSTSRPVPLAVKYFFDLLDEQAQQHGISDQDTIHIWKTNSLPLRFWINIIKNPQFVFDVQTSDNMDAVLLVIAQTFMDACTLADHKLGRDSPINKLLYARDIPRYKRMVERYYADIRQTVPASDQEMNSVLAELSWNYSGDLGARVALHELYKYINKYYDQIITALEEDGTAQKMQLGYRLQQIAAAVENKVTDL

Human Rap1b wild type [res. 1 to 184], sequence (P61224 whole entry): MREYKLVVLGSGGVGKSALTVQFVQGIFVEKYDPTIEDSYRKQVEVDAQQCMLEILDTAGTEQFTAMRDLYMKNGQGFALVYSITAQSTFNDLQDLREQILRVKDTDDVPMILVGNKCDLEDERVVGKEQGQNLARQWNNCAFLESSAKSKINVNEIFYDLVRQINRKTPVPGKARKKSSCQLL
Plexin-B1 ICD FL [res. 1511-2135], sequence (O43157 1511-2135): as the sequence (O43157 1511-2135 R1900E/R1904E) above, with E390R, E394R counted along it
Plexin-B1 ICD R1900E.R1904E (human), sequence (O43157 1511-2135 R1900E/R1904E): as the sequence (O43157 1511-2135 R1900E/R1904E) above
Plexin-B1 ICD E1530R.E1533R (human), sequence (O43157 1511-2135 E1530R/E1533R): as the sequence (O43157 1511-2135 R1900E/R1904E) above, with E20R, E23R, E390R, E394R counted along it
Plexin-B1 ICD E1530R.E1533R, sequence (O43157 1511-2135 E1530R/E1533R): as the sequence (O43157 1511-2135 R1900E/R1904E) above, with E20R, E23R, E390R, E394R counted along it

| Molecule | loss of GAP activity towards Rap1b against wild type Plexin-B1 ICR [1] | loss of GAP activity towards Rap1b against wild type Plexin-B1 ICR [2] | binding result [3] | Kd [4] | Kd [5] |
| --- | --- | --- | --- | --- | --- |
| Human Rap1b wild type [res. 1 to 184] (from UniProt P61224 1-184) (enzyme) | > 50% | > 50% |  |  |  |
| Rap1b G12V (constitutive active mutant) [res. 1 to 184] (enzyme, human, UniProt P61224 1-184, looked up) MREYKLVVLGSVGVGKSALTVQFVQGIFVEKYDPTIEDSYRKQVEVDAQQCMLEILDTAGTEQFTAMRDLYMKNGQGFALVYSITAQSTFNDLQDLREQILRVKDTDDVPMILVGNKCDLEDERVVGKEQGQNLARQWNNCAFLESSAKSKINVNEIFYDLVRQINRKTPVPGKARKKSSCQLL |  |  | binds | > 100 µM | > 100 µM |
